Reference: patent US20230192896A1 (BIOVERATIV THERAPEUTICS, published 2023)

B1: BIIB-9-3675 (antibody, V domains shown)
VH: QLQLQESGPGLVKPSETLSLTCTVSGGSISSTSYYWVWIRQPPGKGLEWIGSITASGSTYYNPSLKSRVTISVDTSKNQFSLKLSSVTAADTAVYYCARDKYQDYSFDIWGQGTMVTVSS
VL: DIQMTQSPSSVSASVGDRVTITCRASQGIDSWLAWYQQKPGKAPKLLIYAASSLQSGVPSRFSGSGSGTDFTLTISSLQPEDFATYYCQQANFLPFTFGGGTKVEIK
notes: daughter of BIIB-9-578
B2: BIIB-9-3684 (antibody, V domains shown)
VH: QLQLQESGPGLVKPSETLSLTCTVSGGSISSVSYYWNWIRQPPGKGLEWIGSITYSGSTQYNPSLKSRVTISVDTSKNQFSLKLSSVTAADTAVYYCARDKYQDYSFDIWGQGTMVTVSS
VL: DIQMTQSPSSVSASVGDRVTITCRASQGIDSWLAWYQQKPGKAPKLLIYAASSLQSGVPSRFSGSGSGTDFTLTISSLQPEDFATYYCQQANFLPFTFGGGTKVEIK
notes: daughter of BIIB-9-578
B3: BIIB-9-3704 (antibody, V domains shown)
VH: QVQLQESGPGLVKPSQTLSLTCTVSGGSISSGAYAWSWIRQHPGKGLEWIGYIYYQGKTYYNPSLKSRVTISVDTSKNQFSLKLSSVTAADTAVYYCARDKYQDYSFDIWGQGTMVTVSS
VL: DIQMTQSPSSVSASVGDRVTITCRASQGIDSWLAWYQQKPGKAPKLLIYAASSLQSGVPSRFSGSGSGTDFTLTISSLQPEDFATYYCQQANFLPFTFGGGTKVEIK
notes: daughter of BIIB-9-578
B4: BIIB-9-3681 (antibody, V domains shown)
VH: QLQLQESGPGLVKPSETLSLTCTVSGGSISSGSYYWNWIRQPPGKGLEWIGSIQPSGSTYYNPSLKSRVTISVDTSKNQFSLKLSSVTAADTAVYYCARDKYQDYSFDIWGQGTMVTVSS
VL: DIQMTQSPSSVSASVGDRVTITCRASQGIDSWLAWYQQKPGKAPKLLIYAASSLQSGVPSRFSGSGSGTDFTLTISSLQPEDFATYYCQQANFLPFTFGGGTKVEIK
notes: daughter of BIIB-9-578
B5: BIIB-9-3780 (antibody, V domains shown)
VH: QLQLQESGPGLVKPSETLSLTCTVSGGSISSSSYYWGWIRQPPGKGLEWIGSISYSGSTYYNPSLKSRVTISVDTSKNQFSLKLSSVTAADTAVYYCARDKYQDYSVDIWGQGTMVTVSS
VL: DIQMTQSPSSVSASVGDRVTITCRASQGIDSWLAWYQQKPGKAPKLLIYAASSLQSGVPSRFSGSGSGTDFTLTISSLQPEDFATYYCQQANFLPFTFGGGTKVEIK
notes: daughter of BIIB-9-578
B6: BIIB-9-3698 (antibody, V domains shown)
VH: QLQLQESGPGLVKPSETLSLTCTVSGGSIASSSYYWSWIRQPPGKGLEWIGSIRGSGSTYYNPSLKSRVTISVDTSKNQFSLKLSSVTAADTAVYYCARDKYQDYSFDIWGQGTMVTVSS
VL: DIQMTQSPSSVSASVGDRVTITCRASQGIDSWLAWYQQKPGKAPKLLIYAASSLQSGVPSRFSGSGSGTDFTLTISSLQPEDFATYYCQQANFLPFTFGGGTKVEIK
notes: daughter of BIIB-9-578
B7: BIIB-9-3745 (antibody, V domains shown)
VH: QVQLVQSGAEVKKPGASVKVSCKASGYTFTGYPMHWVRQAPGQGLEWMGSINPSRGSTSYAQKFQGRVTMTRDTSTSTVYMELSSLRSEDTAVYYCARDGPRVSDYYMDVWGKGTTVTVSS
VL: EIVLTQSPATLSLSPGERATLSCRASQSVSSYLAWYQQKPGQAPRLLIYDASNRATGIPARFSGSGSGTDFTLTISSLEPEDFAVYYCQQRDNWPFTFGGGTKVEIK
notes: daughter of BIIB-9-619
B8: BIIB-9-3764 (antibody, V domains shown)
VH: EVQLVESGGGLVKPGGSLRLSCAASGFTFGSYDMNWVRQAPGKGLEWVSSISSGESYIYYAESVKGRFTISRDNAKNSLYLQMNSLRAEDTAVYYCARDVGGYAGYYGMDVWGQGTTVTVSS
VL: DIQMTQSPSSLSASVGDRVTITCGANQYISDYLNWYQQKPGKAPKLLIYDAANLHTGVPSRFSGSGSGTDFTFTISSLQPEDIATYYCQQYARFPYTFGGGTKVEIK
B9: BIIB-9-3650 (antibody, V domains shown)
VH: EVQLVESGGGLVQPGGSLRLSCAASGFTFGSYEMNWVRQAPGKGLEWVSAISASSSTIYYADSVKGRFTISRDNAKNSLYLQMNSLRAEDTAVYYCARDVGGYAGYYGMDVWGQGTTVTVSS
VL: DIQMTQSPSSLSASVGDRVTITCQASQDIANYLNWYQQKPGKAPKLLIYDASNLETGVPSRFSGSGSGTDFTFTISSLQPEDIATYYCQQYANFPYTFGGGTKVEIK
B10: BIIB-9-3604 (antibody, V domains shown)
VH: EVQLVESGGGLVKPGGSLRLSCAASGFTFSSYDMVWVRQAPGKGLEWVSSISSGDSYIYYADSVKGRFTISRDNAKNSLYLQMNSLRAEDTAVYYCARDVGGYAGYYGMDVWGQGTTVTVSS
VL: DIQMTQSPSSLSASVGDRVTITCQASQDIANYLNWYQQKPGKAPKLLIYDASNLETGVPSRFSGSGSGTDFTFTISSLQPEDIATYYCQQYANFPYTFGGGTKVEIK
B11: BIIB-9-3601 (antibody, V domains shown)
VH: EVQLVESGGGLVKPGGSLRLSCAASGFTFSSFSMNWVRQAPGKGLEWVSSISSAGSYIYYADSVKGRFTISRDNAKNSLYLQMNSLRAEDTAVYYCARDVGGYAGYYGMDVWGQGTTVTVSS
VL: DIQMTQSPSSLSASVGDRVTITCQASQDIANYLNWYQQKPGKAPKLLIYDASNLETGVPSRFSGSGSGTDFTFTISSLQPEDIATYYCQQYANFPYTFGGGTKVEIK
B12: BIIB-9-3618 (antibody, V domains shown)
VH: EVQLVESGGGLVKPGGSMRLSCAASGFTFSSYEMVWVRQAPGKGLEWVSYISSGSSYIYYADSVKGRFTISRDNAKNSLYLQMNSLRAEDTAVYYCARDVGGYAGYYGMDVWGQGTTVTVSS
VL: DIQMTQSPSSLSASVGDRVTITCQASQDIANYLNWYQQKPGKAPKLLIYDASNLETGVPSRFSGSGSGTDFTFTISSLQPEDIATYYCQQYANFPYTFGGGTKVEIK
B13: BIIB-9-3753 (antibody, V domains shown)
VH: EVQLVESGGGLVKPGGSLRLSCAASGFTFGSYDMNWVRQAPGKGLEWVSSISDSASYIAYADSVKGRFTISRDNAKNSLYLQMNSLRAEDTAVYYCARDVSGYAGYYGMDVWGQGTTVTVSS
VL: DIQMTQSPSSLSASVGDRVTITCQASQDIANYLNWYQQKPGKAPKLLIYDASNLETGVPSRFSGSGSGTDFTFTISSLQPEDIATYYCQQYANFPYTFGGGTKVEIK
B14: BIIB-9-3621 (antibody, V domains shown)
VH: EVQLVESGGGLVKPGGSLRLSCAASGFTFGSYSMAWVRQAPGKGLEWVSGISSSSGYIYYADSVKGRFTISRDNAKNSLYLQMNSLRAEDTAVYYCARDVGGYAGYYGMDVWGQGTTVTVSS
VL: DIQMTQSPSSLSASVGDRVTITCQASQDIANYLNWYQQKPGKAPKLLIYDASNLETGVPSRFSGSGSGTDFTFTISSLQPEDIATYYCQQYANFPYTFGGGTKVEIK
B15: BIIB-9-3647 (antibody, V domains shown)
VH: EVQLVESGGGLVKPGGSLRLSCAASGFTFSSYGMVWVRQAPGKGLEWVSSISSASSYIYYADSVKGRFTISRDNAKNSLYLQMNSLRAEDTAVYYCARDVGGYAGYYGMDVWGQGTTVTVSS
VL: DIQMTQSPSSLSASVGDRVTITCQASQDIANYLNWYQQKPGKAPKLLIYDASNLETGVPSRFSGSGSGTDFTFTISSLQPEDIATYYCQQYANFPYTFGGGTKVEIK
B16: BIIB-9-3766 (antibody, V domains shown)
VH: EVQLVESGGGLVKPGGSLRLSCAASGFTFGSYDMNWVRQAPGKGLEWVSSISSGESYIYYAESVKGRFTISRDNAKNSLYLQMNSLRAEDTAVYYCARDVGGYAGYYGMDVWGQGTTVTVSS
VL: DIQMTQSPSSLSASVGDRVTITCEASEDISNYLNWYQQKPGKAPKLLIYDASNLQYGVPSRFSGSGSGTDFTFTISSLQPEDIATYYCSQYANFPYTFGGGTKVEIK
B17: BIIB-9-3595 (antibody, V domains shown)
VH: EVQLVESGGGLVKPGGSLRLSCAASGFTFSSYSMNWVRQAPGKGLEWVSSISSSSSYIYYADSVKGRFTISRDNAKNSLYLQMNSLRAEDTAVYYCARDLGGYAGYYGMDVWGQGTTVTVSS
VL: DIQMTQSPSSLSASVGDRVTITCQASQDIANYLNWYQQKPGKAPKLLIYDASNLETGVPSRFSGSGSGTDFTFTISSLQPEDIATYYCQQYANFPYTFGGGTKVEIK
B18: BIIB-9-3754 (antibody, V domains shown)
VH: EVQLVESGGGLVKPGGSLRLSCAASGFTFGSYDMNWVRQAPGKGLEWVSSISSGESYIYYAESVKGRFTISRDNAKNSLYLQMNSLRAEDTAVYYCARDVGGYAGFYGMDVWGQGTTVTVSS
VL: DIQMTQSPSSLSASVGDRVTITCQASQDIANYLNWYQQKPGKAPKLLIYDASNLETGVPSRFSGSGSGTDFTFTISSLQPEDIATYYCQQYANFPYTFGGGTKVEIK
B19: BIIB-9-3649 (antibody, V domains shown)
VH: EVQLVESGGGLVKPGGSLRLSCAASGFTFSSYGMAWVRQAPGKGLEWVSGISSSSSYIYYADSVKGRFTISRDNAKNSLYLQMNSLRAEDTAVYYCARDVGGYAGYYGMDVWGQGTTVTVSS
VL: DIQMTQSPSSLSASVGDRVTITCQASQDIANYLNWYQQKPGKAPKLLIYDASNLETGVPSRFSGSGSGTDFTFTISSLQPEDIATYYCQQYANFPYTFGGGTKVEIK
B20: BIIB-9-3654 (antibody, V domains shown)
VH: EVQLVESGGGLVKPGGSLRLSCAASGFTFESYSMNWVRQAPGKGLEWVSGISSASSYIYYADSVKGRFTISRDNAKNSLYLQMNSLRAEDTAVYYCARDVGGYAGYYGMDVWGQGTTVTVSS
VL: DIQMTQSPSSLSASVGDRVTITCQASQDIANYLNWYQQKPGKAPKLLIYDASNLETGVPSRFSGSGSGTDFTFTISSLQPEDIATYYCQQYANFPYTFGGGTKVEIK
B21: BIIB-9-3617 (antibody, V domains shown)
VH: EVQLVESGGGLVKPGGSLRLSCAASGFTFSSYSMTWVRQAPGKGLEWVSSISSSGTYIYYADSVKGRFTISRDNAKNSLYLQMNSLRAEDTAVYYCARDVGGYAGYYGMDVWGQGTTVTVSS
VL: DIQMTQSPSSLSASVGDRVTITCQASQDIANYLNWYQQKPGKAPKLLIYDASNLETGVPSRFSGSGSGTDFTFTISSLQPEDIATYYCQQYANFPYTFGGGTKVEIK
B22: BIIB-9-3756 (antibody, V domains shown)
VH: EVQLVESGGGLVKPGGSLRLSCAASGFTFGSYDMNWVRQAPGKGLEWVSSISSGESYIYYAESVKGRFTISRDNAKNSLYLQMNSLRAEDTAVYYCVRDVGGYAGYYGMDVWGQGTTVTVSS
VL: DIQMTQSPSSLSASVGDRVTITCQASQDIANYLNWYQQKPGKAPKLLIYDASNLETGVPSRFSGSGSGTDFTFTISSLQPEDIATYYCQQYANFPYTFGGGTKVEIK
B23: BIIB-9-1281 (antibody, V domains shown)
VH: QVQLQQWGAGLLKPSETLSLTCAVYGGSFSGYYWSWIRQPPGKGLEWIGEIDHSGSTNYNPSLKSRVTISVDTSKNQFSLKLSSVTAADTAVYYCARTTRSKYYGMDVWGQGTMVTVSS
VL: DIQMTQSPSTLSASVGDRVTITCRASQSISSWLAWYQQKPGKAPKLLIYKASSLESGVPSRFSGSGSGTDFTLTISSLQPEDFATYYCQQAISLPITFGGGTKVEIK
notes: IgG
B24: BIIB-9-1287 (antibody, V domains shown)
VH: QLQLQESGPGLVKPSETLSLTCTVSGGSISSSDYYWGWIRQPPGKGLEWIGSIYYSGSTYYNPSLKSRVTISVDTSKNQFSLKLSSVTAADTAVYYCARSPRHKVRGPNWFDPWGQGTLVTVSS
VL: EIVLTQSPGTLSLSPGERATLSCRASQSVSSSYLAWYQQKPGQAPRLLIYGASSRATGIPDRFSGSGSGTDFTLTISRLEPEDFAVYYCQQYHLHPTFGGGTKVEIK
notes: IgG
B25: BIIB-9-1336 (antibody, V domains shown)
VH: EVQLVESGGGLVKPGGSLRLSCAASGFTFGSYDMNWVRQAPGKGLEWVSSISSGESYIYYAESVKGRFTISRDNAKNSLYLQMNSLRAEDTAVYYCARDVGGYAGYYGMDVWGQGTTVTVSS
VL: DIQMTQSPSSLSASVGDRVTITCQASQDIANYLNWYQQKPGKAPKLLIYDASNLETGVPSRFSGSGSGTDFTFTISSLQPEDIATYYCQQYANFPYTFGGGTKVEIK

What follows are binders tested against T1, free FIXa (activated Factor IX) (human, UniProt P00740 47-191; P00740 227-461) (assay: yeast display selection and BLI as in Examples 1 and 5).
T1 construct: BLI antigen bought from Haematologic Technologies (HCIXA-0050); also called factor IXa
B1: binds.
B2: binds.
B3: binds.
B4: binds.
B5: binds.
B6: binds.
B7: binds.
B8: binds.
B9: binds.
B10: binds.
B11: binds.
B12: binds.
B13: binds.
B14: binds.
B15: binds.
B16: binds.
B17: binds.
B18: binds.
B19: binds.
B20: binds.
B21: binds.
B22: binds.

The binders below were run against T2, FIXa-SM (FIXa+EGR-CMK) (human, UniProt P00740 47-191; P00740 227-461, EGR-CMK (L-Glu-Gly-Arg chloromethyl ketone) covalently bound to the active site) (assay: BLI; class meaning: paragraph 914).
T2 construct: BLI antigen bought from Haematologic Technologies (HCIXA-EGR); also called FIXa with substrate mimic
B23: binds.
B24: binds.

What follows are binders tested against T1, free FIXa (activated Factor IX) (assay: BLI; class meaning: paragraph 914).
B23: binds.
B24: binds.

The binders below were run against T1, free FIXa (activated Factor IX) (assay: cell-based or functional assay).
With B25 the “rate of ATIII inhibition of FIXa (ATIII-FIXa complex band on gel)” value was about 3 fold and the “rate of substrate (ADG299) cleavage by FIXa (amidolytic activity)” value was 3 fold.
